Experimental findings from US20240124553A1 are described below.

Assay [1] has as its target CHIKV virus-like particles (strain 37997) (chikungunya virus).
Assay [2] shares this target. This is another data set of the same source.
For assay [3], the target named is Sindbis virus strain TR339 (virions; also structural proteins on infected Vero cells) (Sindbis virus).
The target of assay [4] is CHIKV E2-6K-E1 envelope proteins (strain S27) with E2 G205A (Chikungunya virus strain S27) (UniProt Q8JUX5). Kind of assay: flow cytometry, transfected 293T cells.
Assay [5] has as its target CHIKV E2-6K-E1 envelope proteins (strain S27) with E2 C201A (Chikungunya virus strain S27) (UniProt Q8JUX5). Nature of the assay: flow cytometry, transfected 293T cells.
Assay [6] addresses CHIKV E2-6K-E1 envelope proteins (strain S27) with E2 V216A (Chikungunya virus strain S27) (UniProt Q8JUX5). Kind of assay: flow cytometry, transfected 293T cells.
Assay [7] addresses CHIKV E2-6K-E1 envelope proteins (strain S27) with E2 I190A (Chikungunya virus strain S27) (UniProt Q8JUX5). Nature of the assay: flow cytometry, transfected 293T cells.
The target in assay [8] is CHIKV E2-6K-E1 envelope proteins (strain S27) with E2 G204A (Chikungunya virus strain S27) (UniProt Q8JUX5). Nature of the assay: flow cytometry, transfected 293T cells.
For assay [9], the target named is CHIKV E2-6K-E1 envelope proteins (strain S27) with E2 T212A (Chikungunya virus strain S27) (UniProt Q8JUX5). Nature of the assay: flow cytometry, transfected 293T cells.
In assay [10] the target is CHIKV E2-6K-E1 envelope proteins (strain S27) with E2 Q184A (Chikungunya virus strain S27) (UniProt Q8JUX5). Kind of assay: flow cytometry, transfected 293T cells.
Assay [11] has as its target CHIKV E2-6K-E1 envelope proteins (strain S27) with E2 I211A (Chikungunya virus strain S27) (UniProt Q8JUX5). Kind of assay: flow cytometry, transfected 293T cells.
In assay [12] the target is CHIKV E2-6K-E1 envelope proteins (strain S27) with E2 C220A (Chikungunya virus strain S27) (UniProt Q8JUX5). Kind of assay: flow cytometry, transfected 293T cells.
Assay [13] has as its target CHIKV E2-6K-E1 envelope proteins (strain S27) with E2 T196A (Chikungunya virus strain S27) (UniProt Q8JUX5). Kind of assay: flow cytometry, transfected 293T cells.
For assay [14], the target named is CHIKV E2-6K-E1 envelope proteins (strain S27) with E2 L210A (Chikungunya virus strain S27) (UniProt Q8JUX5). Kind of assay: flow cytometry, transfected 293T cells.
The target of assay [15] is CHIKV E2-6K-E1 envelope proteins (strain S27) with E2 I217A (Chikungunya virus strain S27) (UniProt Q8JUX5). Kind of assay: flow cytometry, transfected 293T cells.
The target of assay [16] is CHIKV E2-6K-E1 envelope proteins (strain S27) with E2 K200A (Chikungunya virus strain S27) (UniProt Q8JUX5). Kind of assay: flow cytometry, transfected 293T cells.
The target of assay [17] is CHIKV E2-6K-E1 envelope proteins (strain S27) with E2 K189A (Chikungunya virus strain S27) (UniProt Q8JUX5). Kind of assay: flow cytometry, transfected 293T cells.
The target of assay [18] is CHIKV E2-6K-E1 envelope proteins (strain S27) with E2 V192A (Chikungunya virus strain S27) (UniProt Q8JUX5). Kind of assay: flow cytometry, transfected 293T cells.
Assay [19] addresses CHIKV E2-6K-E1 envelope proteins (strain S27) with E2 C203A (Chikungunya virus strain S27) (UniProt Q8JUX5). Kind of assay: flow cytometry, transfected 293T cells.
In assay [20] the target is CHIKV E2-6K-E1 envelope proteins (strain S27) with E2 S206A (Chikungunya virus strain S27) (UniProt Q8JUX5). Kind of assay: flow cytometry, transfected 293T cells.
For assay [21], the target named is CHIKV E2-6K-E1 envelope proteins (strain S27) with E2 N219A (Chikungunya virus strain S27) (UniProt Q8JUX5). Kind of assay: flow cytometry, transfected 293T cells.
Assay [22] has as its target CHIKV E2-6K-E1 envelope proteins (strain S27) with E2 L181A (Chikungunya virus strain S27) (UniProt Q8JUX5). Nature of the assay: flow cytometry, transfected 293T cells.
Assay [23] addresses CHIKV E2-6K-E1 envelope proteins (strain S27) with E2 N218A (Chikungunya virus strain S27) (UniProt Q8JUX5). Kind of assay: flow cytometry, transfected 293T cells.
Assay [24] addresses CHIKV E2-6K-E1 envelope proteins (strain S27) with E2 Q195A (Chikungunya virus strain S27) (UniProt Q8JUX5). Nature of the assay: flow cytometry, transfected 293T cells.
The target in assay [25] is CHIKV E2-6K-E1 envelope proteins (strain S27) with E2 V197A (Chikungunya virus strain S27) (UniProt Q8JUX5). Nature of the assay: flow cytometry, transfected 293T cells.
Assay [26] has as its target CHIKV E2-6K-E1 envelope proteins (strain S27) with E2 Q183A (Chikungunya virus strain S27) (UniProt Q8JUX5). Nature of the assay: flow cytometry, transfected 293T cells.
The target of assay [27] is CHIKV E2-6K-E1 envelope proteins (strain S27) with E2 N202A (Chikungunya virus strain S27) (UniProt Q8JUX5). Kind of assay: flow cytometry, transfected 293T cells.
In assay [28] the target is CHIKV E2-6K-E1 envelope proteins (strain S27) with E2 R198A (Chikungunya virus strain S27) (UniProt Q8JUX5). Kind of assay: flow cytometry, transfected 293T cells.
The target of assay [29] is CHIKV E2-6K-E1 envelope proteins (strain S27) with E2 T191A (Chikungunya virus strain S27) (UniProt Q8JUX5). Kind of assay: flow cytometry, transfected 293T cells.
The target in assay [30] is CHIKV E2-6K-E1 envelope proteins (strain S27) with E2 N187A (Chikungunya virus strain S27) (UniProt Q8JUX5). Nature of the assay: flow cytometry, transfected 293T cells.
Assay [31] concerns the target CHIKV E2-6K-E1 envelope proteins (strain S27) with E2 G209A (Chikungunya virus strain S27) (UniProt Q8JUX5). Nature of the assay: flow cytometry, transfected 293T cells.
Assay [32] addresses CHIKV E2-6K-E1 envelope proteins (strain S27) with E2 S185A (Chikungunya virus strain S27) (UniProt Q8JUX5). Kind of assay: flow cytometry, transfected 293T cells.
Assay [33] has as its target CHIKV E2-6K-E1 envelope proteins (strain S27) with E2 S194A (Chikungunya virus strain S27) (UniProt Q8JUX5). Nature of the assay: flow cytometry, transfected 293T cells.
Assay [34] concerns the target CHIKV E2-6K-E1 envelope proteins (strain S27) with E2 V188A (Chikungunya virus strain S27) (UniProt Q8JUX5). Nature of the assay: flow cytometry, transfected 293T cells.
Assay [35] addresses CHIKV E2-6K-E1 envelope proteins (strain S27) with E2 G186A (Chikungunya virus strain S27) (UniProt Q8JUX5). Nature of the assay: flow cytometry, transfected 293T cells.
Assay [36] addresses CHIKV E2-6K-E1 envelope proteins (strain S27) with E2 Y199A (Chikungunya virus strain S27) (UniProt Q8JUX5). Nature of the assay: flow cytometry, transfected 293T cells.
In assay [37] the target is CHIKV E2-6K-E1 envelope proteins (strain S27) with E2 K215A (Chikungunya virus strain S27) (UniProt Q8JUX5). Nature of the assay: flow cytometry, transfected 293T cells.
The target in assay [38] is CHIKV E2-6K-E1 envelope proteins (strain S27) with E2 N193A (Chikungunya virus strain S27) (UniProt Q8JUX5). Kind of assay: flow cytometry, transfected 293T cells.
Assay [39] deals with CHIKV E2-6K-E1 envelope proteins (strain S27) with E2 S182A (Chikungunya virus strain S27) (UniProt Q8JUX5). Kind of assay: flow cytometry, transfected 293T cells.
For assay [40], the target named is CHIKV E2-6K-E1 envelope proteins (strain S27) with E2 L180A (Chikungunya virus strain S27) (UniProt Q8JUX5). Nature of the assay: flow cytometry, transfected 293T cells.
For assay [41], the target named is CHIKV virus-like particles (strain 37997) (chikungunya virus). The source holds these as a separate data set.
Assay [42] shares this target. The source holds these as a separate data set.
For assay [43] the target is unchanged. Nature of the assay: SPR, […], kinetic fit ([…].
The target is the same in assay [44]. This is another data set of the same source.

pKd: −log10 of the molar value. “And” between values parts separate entries of the source, which are not always exact repeats. Equal entries are not always repeated. Where two headings read alike, the source gives them in different places.

Consider “monovalent mouse MXRA8 (cleaved from mouse MXRA8-Fc with GlySERIAS) (from UniProt Q9DBV4 20-340) (receptor)”, for which the results for the pKd in [1] and in [2] were 7.12 and 7.17, respectively.

In the case of duck MXRA8-Fc (Fc fusion), the neutralisation of SINV-GFP infection; IC50 (read off the curve) in [3] turned out to be 1 µg/mL.

As for MAb C9 (antibody), the Binding Reactivity (% WT) in [4] was found to be 111 % WT; in [5], 65 % WT; in assay [6], 112 % WT; in [7] it was 81.8 % WT; in [8], 106 % WT; in [9], 125 % WT. Besides, the Binding Reactivity (% WT) stood at 135 % WT in assay [10]; 126 % WT in [11]; 104 % WT in [12]; 99.8 % WT in assay [13]; 105 % WT in assay [14]; 110 % WT in assay [15]. Besides, the Binding Reactivity (% WT) in assay [16] amounted to 144 % WT; in assay [17], 129 % WT; in [18], 114 % WT; in [19], 58.3 % WT; in assay [20], 96 % WT; in assay [21], 117 % WT. The Binding Reactivity (% WT) in assay [22] is 110 % WT; in assay [23], 72 % WT; in [24], 129 % WT; in [25], 83.8 % WT; in assay [26] it was 176 % WT; in [27], 96.2 % WT. Moreover, the Binding Reactivity (% WT) in assay [28] came out at 122 % WT; in assay [29] it was 118 % WT; in [30], 123 % WT; in assay [31], 108 % WT; in assay [32], 105 % WT; in assay [33], 119 % WT. For the same substance, the Binding Reactivity (% WT) in assay [34] is 141 % WT; in assay [35], 101 % WT; in [36] it was 122 % WT; in assay [37] it was 143 % WT; in [38] it was 113 % WT; in assay [39] it was 132 % WT. Further, the Binding Reactivity (% WT) in assay [40] was found to be 126 % WT.

Consider “monovalent Du-D1-Mo-D2 MXRA8 (cleaved from the Fc fusion with GlySERIAS) (from UniProt Q9DBV4 23-65; Q9DBV4 195-293) (receptor)”, for which the pKd in assay [41] was 6.18; in [2] it was 6.26.

Consider IM-CKV063 (antibody), for which the Binding Reactivity (% WT) was found to be 62 % WT in assay [4]; 47.7 % WT in [5]; 97.7 % WT in assay [6]; 56.1 % WT in [7]; 91.5 % WT in [8]; 108 % WT in assay [9]. Further, the Binding Reactivity (% WT) in assay [10] turned out to be 121 % WT; in [11] it was 77.2 % WT; in assay [12], 95.2 % WT; in [13], 83 % WT; in [14] it was 86.3 % WT; in assay [15], 69.7 % WT. The Binding Reactivity (% WT) in assay [16] was determined as 119 % WT; in assay [17] it was 109 % WT; in assay [18], 98.3 % WT; in assay [19], 45.1 % WT; in assay [20], 119 % WT; in [21], 98 % WT. Further, the Binding Reactivity (% WT) in assay [22] is 87.9 % WT; in assay [23] it was 97.6 % WT; in assay [24], 78.6 % WT; in [25], 67.4 % WT; in assay [26], 101 % WT; in assay [27], 92.8 % WT. Also, the Binding Reactivity (% WT) in assay [28] was 98.2 % WT; in [29], 94.8 % WT; in assay [30] it was 114 % WT; in [31] it was 99.8 % WT; in assay [32], 108 % WT; in assay [33], 94 % WT. In addition, the Binding Reactivity (% WT) in [34] was 114 % WT; in [35] it was 95.4 % WT; in assay [36], 79.8 % WT; in assay [37] it was 102 % WT; in assay [38], 85.7 % WT; in [39], 121 % WT. Besides, the Binding Reactivity (% WT) in assay [40] was 114 % WT.

“cleaved human Mxra8 (human monomeric MXRA8) (from UniProt Q9BRK3 20-341) (receptor)”: the negative logarithm of the Kd (pKd) in assay [42] was 7.22 and 6.52; in assay [43], 7.01 and 6.68.

Substance “CHK-265 (murine anti-CHIKV mAb) (antibody)” came in with an EC50 (read off the curve) in assay [44] of 0.003 µg/mL.
